# Measurements from US20220395579A1 (Daiichi Sankyo, published 2022).
# T1: human CLDN3 (human, UniProt O15551 1-220)
# T1 construct: whole, on cells; Transfection was confirmed with an anti-FLAG antibody, so the construct may carry a tag
# T1 sequence (looked up): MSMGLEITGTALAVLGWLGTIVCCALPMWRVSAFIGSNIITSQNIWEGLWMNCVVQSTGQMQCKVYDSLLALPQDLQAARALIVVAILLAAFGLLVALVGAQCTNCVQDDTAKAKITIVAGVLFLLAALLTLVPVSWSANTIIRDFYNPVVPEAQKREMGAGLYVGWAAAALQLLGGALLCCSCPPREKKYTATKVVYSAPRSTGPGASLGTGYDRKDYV
# T2: human CLDN4 (human, UniProt O14493 1-209)
# T2 construct: whole, on cells; Transfection was confirmed with an anti-FLAG antibody, so the construct may carry a tag
# T2 sequence (looked up): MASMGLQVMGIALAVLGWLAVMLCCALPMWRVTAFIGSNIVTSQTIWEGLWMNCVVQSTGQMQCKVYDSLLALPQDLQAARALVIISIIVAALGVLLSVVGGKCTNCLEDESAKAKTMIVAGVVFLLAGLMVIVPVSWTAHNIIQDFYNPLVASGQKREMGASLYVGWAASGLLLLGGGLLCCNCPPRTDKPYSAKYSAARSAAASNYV
# T3: human CLDN6 (human, UniProt P56747 1-220)
# T3 construct: In the flow cytometry it was expressed on 293T cells from human CLDN6/pCMV-Entry bought from OriGene; It was also expressed on CHO-K1 cells by cDNA transfection, and the endogenous protein was immunoprecipitated from NTERA-2 cell lysate; also called claudin-6; hCLDN6
# T3 sequence: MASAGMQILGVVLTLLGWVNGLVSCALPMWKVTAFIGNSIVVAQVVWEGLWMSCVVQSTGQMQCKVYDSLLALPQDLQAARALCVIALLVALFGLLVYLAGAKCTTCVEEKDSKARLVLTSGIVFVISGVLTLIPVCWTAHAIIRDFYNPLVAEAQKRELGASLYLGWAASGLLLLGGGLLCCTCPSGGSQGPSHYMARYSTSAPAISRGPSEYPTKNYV
# T4: human CLDN9 (human, UniProt O95484 1-217)
# T4 construct: It was expressed on 293T cells from human CLDN9/pCMV6-Entry bought from OriGene; also called claudin-9
# T4 sequence: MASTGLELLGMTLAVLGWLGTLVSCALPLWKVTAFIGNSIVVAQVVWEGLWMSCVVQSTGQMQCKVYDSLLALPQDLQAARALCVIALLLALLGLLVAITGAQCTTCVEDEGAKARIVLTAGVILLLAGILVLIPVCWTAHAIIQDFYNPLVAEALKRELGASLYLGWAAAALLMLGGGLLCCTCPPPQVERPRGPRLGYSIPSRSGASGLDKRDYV
# Experiments:
# human CLDN3 = biological target: T1, human CLDN3; assay: flow cytometry on 293T cells transiently transfected with human CLDN3
# human CLDN4 = biological target: T2, human CLDN4; assay: flow cytometry on 293T cells transiently transfected with human CLDN4
# human CLDN6 [1] = biological target: T3, human CLDN6; assay: flow cytometry on 293T cells transiently transfected with human CLDN6
# Experimental: (§1) The binding activity of the humanized anti-CLDN6 antibody produced in Example 136 to human CLDN6 and its family molecules, CLDN3, CLDN4, and CLDN9, was evaluated by using a flow cytometry method. […] The cells were washed with Dulbecco's phosphate buffered saline (Sigma-Aldrich Co. LLC) containing 5% fetal bovine serum (Hyclone) (hereinafter, referred to as 5% FBS-containing PBS), and FITC AffiniPureF (ab′)₂ Fragment Goat Anti-Human IgG (H+L) (Jackson ImmunoResearch Laboratories Inc.) 150-fold diluted with 5% FBS-containing PBS was then added thereto, and the cells were suspended and left to stand at 4° C. for 30 minutes. After washing with 5% FBS-containing PBS, detection was carried out by using a flow cytometer (FC500; Beckman Coulter, Inc.). Data analysis was carried out by using FlowJo (Tree Star, Inc.), and mean fluorescence intensity (MFI) of FITC, which indicates the amount of the binding antibody, was calculated. […] In each graph in FIG. 42, the abscissa represents antibody concentrations and the ordinate represents MFI.
# human CLDN9 = biological target: T4, human CLDN9; assay: flow cytometry on 293T cells transiently transfected with human CLDN9
# Experimental: as §1
# human CLDN6 [2] = biological target: T3, human CLDN6; assay: immunoprecipitation from NTERA-2 cell lysate with the antibody, SDS-PAGE, mass spectrometry of the 18 kDa band
# Experimental: 2×10⁷ NTERA-2 cells were collected and washed twice with PBS. The cells were collected by using a cell scraper, and centrifuged at 1500 rpm for 5 minutes. After the supernatant was removed, the cells were resuspended in 2 mL of the lysis buffer, and treated at 4° C. for 30 minutes. The resultant was centrifuged (13000 rpm, 20 minutes, 4° C.) to prepare a cell lysate. Protein G Sepharose/lysis buffer (50% slurry; 180 μL) was added to the cell lysate, and the resultant was rotated at 4° C. for 30 minutes and then centrifuged at 4° C. for 1 hour, and the supernatant was collected. […] The Protein G Sepharose was washed six times with the lysis buffer (1 mL), and then resuspended in 1×SDS sample buffer. After the suspension was treated at 100° C. for 5 minutes, the solution was collected as a sample for SDS-PAGE. SDS-PAGE was carried out in the same manner as in 2-2), and the electrophoresis gel was stained with CBB. The part corresponding to 18 kDa was cut out of the electrophoresis gel, and subjected to mass spectrometry.
# human CLDN6 [3] = biological target: T3, human CLDN6; assay: FACS on CHO-K1 cells transfected with human claudin-6 cDNA
Binder,binding result (human CLDN3),binding result (human CLDN4),binding result (human CLDN6 [1]),binding result (human CLDN9),binding result (human CLDN6 [2]),binding result (human CLDN6 [3])
"humanized anti-CLDN6 antibody H1L3 (antibody, human IgG1, kappa, L234A L235A, V domains shown, Heavy chain hH1 with light chain hL3; Human IgG1 LALA constant region and human kappa light chain; also called H1L3 antibody) VH: QVQLVQSGAEVKKPGASVKVSCKASGYTFTEYTMHWVRQAPGQGLEWMGGVNPNSGDTSYAQKFQGRVTITADTSTSTAYMELSSLRSEDTAVYYCARPGGYDVGYYAMDYWGQGTLVTVSS VL: DIQMTQSPSSLSASVGDRVTITCRASQDINNYLNWYQQKPGGAVKLLIYFTSRLHSGVPSRFSGSGSGTDYTLTISSLQPEDFATYYCQQGYPLPWTFGGGTKVEIKR",no binding (tested: 100 nM),no binding (tested: 100 nM),binds,binds,–,–
"humanized anti-CLDN6 antibody H2L4 (antibody, human IgG1, kappa, L234A L235A, V domains shown, Human IgG1 LALA constant region and human kappa light chain; also called H2L4 antibody) VH: EVQLVQSGAEVKKPGASVKVSCKTSGYTFTEYTMHWVRQAPGKSLEWMGGVNPNSGDTSYAQKFQGRVTITADTSTSTAYMELSSLRSEDTAVYYCARPGGYDVGYYAMDYWGQGTLVTVSS VL: DIQMTQSPSSLSASVGDRVTITCRASQDINNYLNWYQQKPGGAVKLLIYFTSRLHSGVPSRFSGSGSGTDYTLTISSLQPEDFATYYCQQGNTLPWTFGGGTKVEIKR",no binding (tested: 100 nM),no binding (tested: 100 nM),binds,binds,–,–
"humanized anti-CLDN6 antibody H2L2 (antibody, human IgG1, kappa, L234A L235A, V domains shown, Heavy chain hH2 with light chain hL2; Human IgG1 LALA constant region and human kappa light chain; also called H2L2 antibody) VH: EVQLVQSGAEVKKPGASVKVSCKTSGYTFTEYTMHWVRQAPGKSLEWMGGVNPNSGDTSYAQKFQGRVTITADTSTSTAYMELSSLRSEDTAVYYCARPGGYDVGYYAMDYWGQGTLVTVSS VL: DIQMTQSPSSLSASVGDRVTITCRASQDINNYLNWYQQKPGKAVKLLIYFTSRLHSGVPSRFSGSGSGTHYTLTISSLQPEDFATYYCQQGYPLPWTFGQGTKVEIKR",no binding (tested: 100 nM),no binding (tested: 100 nM),binds,binds,–,–
"humanized anti-CLDN6 antibody H3L3 (antibody, human IgG1, kappa, L234A L235A, V domains shown, Heavy chain hH3 with light chain hL3; Human IgG1 LALA constant region and human kappa light chain; also called H3L3 antibody) VH: EVQLVQSGAEVKKPGASVKVSCKTSGYTFTEYTMHWVRQAPGQGLEWMGGVNPNSGDTSYAQKFQGRVTLTVDKSTSTAYMELSSLRSEDTAVYYCARPGGYDVGYYAMDYWGQGTLVTVSS VL: DIQMTQSPSSLSASVGDRVTITCRASQDINNYLNWYQQKPGGAVKLLIYFTSRLHSGVPSRFSGSGSGTDYTLTISSLQPEDFATYYCQQGYPLPWTFGGGTKVEIKR",no binding (tested: 100 nM),no binding (tested: 100 nM),binds,binds,–,–
"humanized anti-CLDN6 antibody H1L1 (antibody, human IgG1, kappa, L234A L235A, V domains shown, Heavy chain hH1 with light chain hL1; Human IgG1 LALA constant region and human kappa light chain; also called H1L1 antibody) VH: QVQLVQSGAEVKKPGASVKVSCKASGYTFTEYTMHWVRQAPGQGLEWMGGVNPNSGDTSYAQKFQGRVTITADTSTSTAYMELSSLRSEDTAVYYCARPGGYDVGYYAMDYWGQGTLVTVSS VL: DIQMTQSPSSLSASVGDRVTITCRASQDINNYLNWYQQKPGKAPKLLIYFTSRLHSGVPSRFSGSGSGTDYTLTISSLQPEDFATYYCQQGYPLPWTFGQGTKVEIKR",no binding (tested: 100 nM),no binding (tested: 100 nM),binds,binds,–,–
"mouse anti-CLDN6 antibody B1 (antibody, V domains shown, Mouse monoclonal antibody purified from the culture supernatant of hybridoma 218B1; a mouse IgG1 was used as the control; also called B1 antibody; 218B1) VH: EVQLQQSGPELVKPGASVKISCKTSGYTFTEYTMHWVQQSHGKSLEWIGGVNPNSGDTSYNQKFKGKATLTVDKSSSTAYMELRSLTSEDSAVYYCARPGGYDVGYYAMDYWGQGTSVTVSS VL: DIQMTQTASSLSASLGDRVTISCRASQDINNYLNWYQQKPDGTVKLLIYFTSRLHSGVPSRFSGSGSGTHYSLTITNLEQEDIATYFCQQGYPLPWTFGGGTKLEIK",no binding,no binding,–,binds,binds,–
"mouse anti-CLDN6 antibody C7 (antibody, V domains shown, Mouse monoclonal antibody purified from the culture supernatant of hybridoma 218C7; also called C7 antibody; 218C7) VH: EVQLQQSGPELVKPGASVKISCKTSGYTFTEYTMHWVQQSHGKSLEWIGGVNPNSGDTSYNQKFKGKATLTVDKSSSTAYMELRSLTSEDSAVYYCARPGGYDVGYYAMDYWGQGTSVTVSS VL: DIQMTQTASSLSASLGDRVTISCRASQDINNYLNWYQQKPDGTVKLLIYSTSRLHSGVPSRFSGSGSGTHYSLTITHLEQEDIATYFCQQGYPLPWTFGGGTKLEIK",no binding,no binding,–,binds,–,binds
